Measurements taken from paper PMC2132475.

Target: α-dystroglycan on embryonic Xenopus myotomal muscle cells (Xenopus (endogenous in embryonic Xenopus muscle cells))
Experiment: immunostaining of cells or tissue

Question: What does the source list for “laminin fragment E3 (domain or fragment)”?
Answer: percent inhibition of mAb IIH6 binding (at 33 nM E3): 41%; percent inhibition of mAb IIH6 binding (at 3.3 μM E3): 94%
